Two substances from paper doi:10.1101/2025.11.03.686418 can be followed below.

Like-named read-outs stand apart in the source and are kept apart here.

Experiment in all cases: SEC-MALS
Test [1] concerns the target His6-QatC (co-expressed with QatB) (Escherichia coli NCTC9009).
Test [2] has the same target. This is another data set of the same source.
Test [3] concerns the target QatB (untagged, co-expressed with His6-QatC) (Escherichia coli NCTC9009).

For orientation: stoichiometry N means a count of units in the complex or per binding partner. As for “QatB (untagged, co-expressed with His6-QatC) (natural protein)”, the stoichiometry N in test [1] and in test [2] was 1 throughout.

For QatD (untagged, co-expressed) (enzyme), the stoichiometry N in test [3] came to 1.
